Assay results from US20100008978A1, “NANOPARTICLES EFFECTIVE FOR INTERNALIZATION INTO CELLS” (THE REGENTS OF THE UNIVERSITY OF CALIFORNIA, priority 2008, published 2010).
Residue numbers refer to the chain shown, from its start. “Also recorded” adds a separate entry of the source.

Columns and labels:
[1] = target: T1, epidermal growth factor receptor (EGFR) on tumor cells (human, UniProt P00533 25-1210); test: apparent KD, flow cytometry, fluorescent immunoliposomes on MDAMB468 cells, 4 C; 148 scFv/liposome
T1 construct: whole, on cells; Intact EGFR on A431 and MDAMB468 cells (1x10^6-3x10^6 EGFR/cell); also called EGFR-expressing A431 cells; MDAMB468 cells

[2] = target: T1, epidermal growth factor receptor (EGFR) …; test: apparent KD, flow cytometry, fluorescent immunoliposomes on MDAMB468 cells, 4 C; 74 scFv/liposome
[3] = target: T2, A431 cells expressing EGFR (Homo sapiens, UniProt P00533); test: scFv affinity for cells expressing EGFR (A431) by flow cytometry; type: binding
T2 construct: Human squamous carcinoma A431 cells expressing EGFR; endogenous in cells; host or cells: A431
Procedure: Human squamous carcinoma A431 cells expressing EGFR were grown to 80-90% confluence in RPMI medium supplemented with 10% fetal bovine serum and harvested by trypsinization. […] Cell binding was performed at 4° C. in FACS buffer in a volume calculated to ensure fivefold scFv excess and for a duration calculated to ensure that the reaction had reached equilibrium. After two washes with 200 μL of FACS buffer, cell-bound scFv was detected by the addition of 100 μl of 1 μg/ml biotinylated His probe (Santa Cruz Biotech.) and a 1:800 (v/v) dilution of streptavidin-PE (Biosource). After incubation at 4° C. for 30 min, the cells were washed twice and resuspended in PBS containing 4% (v/v) paraformaldehyde. Fluorescence was measured by flow cytometry in a FACS LSRII instrument (Becton Dickinson), and the median fluorescence intensity (MFI) values were fit to the equation:
MFI=MFImin+MFImax([Ab]/(KD+[Ab])
using the software program Kaleidagraph as described previously (Benedict et al. (1997) J. Immunol. Methods, 201: 223-231).

A431 cells = target: T3, A431 cells (Homo sapiens, UniProt P00533); test: differential binding of scFv to cell lines by flow cytometry; conditions: 1×10^6−3×10^6 EGFR/cell
T3 construct: endogenous in cells; host or cells: A431

MDAMB468 cells = test: as above; design: species or system human; conditions: 1×10^6−3×10^6 EGFR/cell
NR6 cells = test: as above; conditions: parental, EGFR negative
biotinylated EGFR-ECD = target: T4, biotinylated EGFR-ECD (Homo sapiens, UniProt P00533); test: KD of yeast-displayed scFv for biotinylated EGFR-ECD by flow cytometry; type: binding; conditions: concentrations as high as 8 μM
T4 construct: Recombinant EGFR-ECD was expressed in HEK293 cells; made in house; host or cells: HEK293
Procedure: Generally, six to eight different concentrations of biotinylated EGFR were used to span a range of concentrations from ten times above to ten times below the KD. Incubation volumes, times and yeast numbers were chosen to ensure that the studies were done in at least fivefold antigen excess and that equilibrium had been achieved (Razai et al. (2005) J. Mol. Biol. 351: 158-169). For anti-EGFR scFv, […] in 50 μl were incubated with biotinylated EGFR-ECD for 1 h at room temperature. […] Only yeast displaying scFv (as determined by binding of SV5 mAb) were gated for affinity measurements.

[4] = target: T5, EGFR (vIII) stably transfected NR6M cells (Homo sapiens, UniProt P00533, DELINS30-297G); test: differential binding of scFv to cell lines by flow cytometry
T5 construct: expressed in transfected cells; host or cells: NR6M (NR6 stably transfected with EGFRvIII)

MDAMB453 cells = test: as above; conditions: 10^4 EGFR/cell

B1: EGFR-targeted immunoliposome constructed from C10 scFv (other)
VH: EVQLVQSGAEVKKPGSSVKVSCKASGGTFSSYAISWVRQAPGQGLEWMGGIIPIFGTANYAQKFQGRVTITADESTSTAYMELSSLRSEDTAVYYCAREEGPYCSSTSCYGAFDIWGQGTLVTVSS
VL: QSVLTQDPAVSVALGQTVKITCQGDSLRSYFASWYQQKPGQAPTLVMYARNDRPAGVPDRFSGSKSGTSASLAISGLQSEDEADYYCAAWDDSLNGYLFGAGTKLTVL
modifications: free cysteine residue at the COOH terminus conjugated to Mal-PEG-DSPE and inserted into the liposome ; The scFv carries a free cysteine at the COOH terminus conjugated to Mal-PEG-DSPE and inserted into a 100-120 nm liposome. It is multivalent, at 12-148 scFv per liposome. None of this can be carried by the letters.
notes: also called C10 ILs; C10 IL; not shown: scFv linker, the C-terminal extension with the free cysteine and tags, and the Mal-PEG-DSPE liposome carrier
Question: B1 was tested. Which Kd [1] did it give?
Answer: 0.36 nM

Question: And the Kd [2]?
Answer: 1.75 nM

B2: 2224: P2/2 scFv combined with the VH CDR3 Gly to Ala mutation from P2/4; SEQ ID NO:17 and 24 (protein)
scFv: B1 VL with F31L, M47T
modifications: Synthetic antibody
Question: B2 was tested. Which “improvement in affinity compared to C10 scFv” value [3] did it give?
Answer: 280 fold

B3: C10: parental (wild-type) internalizing human anti-EGFR scFv from a non-immune phage library; SEQ ID NO:1 (protein)
scFv: B1 VH
modifications: Synthetic antibody
Question: For B3, which “binding to A431 cells” value (A431 cells) is on record?
Answer: stained

Question: What about the “binding to MDAMB468 cells” value (MDAMB468 cells) of the same molecule?
Answer: stained

Question: What about the “binding to NR6 cells” value (NR6 cells) of the same molecule?
Answer: minimal binding; also recorded: did not stain

Question: And the “binding of yeast-displayed scFv to biotinylated recombinant EGFR” value (biotinylated EGFR-ECD)?
Answer: only minimal binding

Question: And the “binding to NR6M cells” value [4]?
Answer: strong staining; also recorded: stained

Question: What about the “binding to MDAMB453 cells” value (MDAMB453 cells) of the same molecule?
Answer: did not stain
